# Where no end group is shown, it is not given here.
# Experiments:
# Settings in all cases: both partners purified
# [1] = molecular target: T1, MRG15 MRG domain, amino acids 155-323 (UniProt Q9UBU8-2 155-323); assay: pull-down; His-tagged PALB2 peptide (0.1 mg/mL) bound to Ni-NTA beads, MRG15 155-323 (0.1 mg/mL) added for 30 min; Buffer B (25 mM HEPES pH 7.5, 10% glycerol, 2 mM CHAPS, 300 mM NaCl), washes with 20 mM imidazole, elution with 250 mM imidazole, SDS-PAGE
# T1 construct: MRG15 (Morf-related gene on chromosome 15), MRG domain, amino acids 155-323; Cloned into the pET28b+-based pSMT3 vector; also called MRG15^155-323; MRG15 fragment; source: E. coli BL21*, purified (Ni-NTA, SUMO tag cleaved with Ulp1, second Ni-NTA flowthrough); not shown: 6xHis, N-terminal, cleaved; SUMO, N-terminal, cleaved
# T1 sequence (Q9UBU8 194-362): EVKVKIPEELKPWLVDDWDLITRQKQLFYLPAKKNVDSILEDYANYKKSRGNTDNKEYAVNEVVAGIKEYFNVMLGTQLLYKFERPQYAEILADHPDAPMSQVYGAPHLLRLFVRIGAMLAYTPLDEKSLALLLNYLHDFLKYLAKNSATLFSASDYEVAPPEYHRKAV
# [2] = molecular target: T1, MRG15 MRG domain, amino acids 155-323; assay: fluorescence polarisation; fluorescence anisotropy competition; mutant PALB2 597-630 peptides serially diluted from 10 uM to 0.6 nM against a preformed complex of MRG15 and FAM-PALB2; 25 mM HEPES pH 8.0, 1 mM TCEP, 10% DMSO, 200 mM NaCl; room temperature
# [3] = molecular target: T1, MRG15 MRG domain, amino acids 155-323; assay: fluorescence polarisation; fluorescence anisotropy; MRG15 fragment serially diluted from 10 uM to 0.6 nM against 10 nM FAM-PALB2 597-630; 25 mM HEPES pH 8.0, 1 mM TCEP, 10% DMSO, 200 mM NaCl; four-parameter logistic fit, EC50 taken as Kd
binder,measurement,setting,value
"MLSLKQLLSFLSITDFQLPDEDFGPLKLEKVKSC (peptide, UniProt Q86YC2 597-630, looked up, Cloned into pMCSG7; also called His-tagged PALB2 peptide; source: E. coli BL21*, purified (Ni-NTA from 8 M urea, washed down to 1 M urea); not shown: 6xHis, N-terminal, kept) [6xHis-PALB2^597-630]",binding result,[1],binds
"MLSLKQLLSFLSITDFQLSDEDFGPLKLEKVKSC (peptide, UniProt Q86YC2 597-630, looked up, also called Pro615 to serine; source: synthetic peptide, bought: Genscript Biotech) [PALB2^597-630 peptide Pro615Ser]",fold reduction in binding affinity against the wild-type peptide,[2],5 fold
"MLSLKQLLSFLSITDFQLPDEDFGPLKLEKVKSC (peptide, UniProt Q86YC2 597-630, looked up, also: fluorescein (FAM) label, position not given here, also called FAM-PALB2; source: synthetic peptide, bought: Genscript Biotech) [fluorescein-labeled PALB2^597-630 peptide]",Kd,[3],23.4 ± 5 nM
"MLSLKQLLSFLSITDFQLPHEDFGPLKLEKVKSC (peptide, UniProt Q86YC2 597-630, looked up, also called Asp616 with histidine; source: synthetic peptide, bought: Genscript Biotech) [PALB2^597-630 peptide Asp616His]",fold reduction in binding affinity against the wild-type peptide,[2],2 fold
"MLSLKQLLSFLSITDFQLPDEDFGTLKLEKVKSC (peptide, UniProt Q86YC2 597-630, looked up, also called Pro621 by threonine; source: synthetic peptide, bought: Genscript Biotech) [PALB2^597-630 peptide Pro621Thr]",binding result,[2],binds

# Reference: paper PMC8701324, “Structural Insight into the Mechanism of PALB2 Interaction with MRG15” (Genes, 2021)
